T1: Opaque2 (Zea mays, UniProt P12959 P12959:1-453)
T1 sequence: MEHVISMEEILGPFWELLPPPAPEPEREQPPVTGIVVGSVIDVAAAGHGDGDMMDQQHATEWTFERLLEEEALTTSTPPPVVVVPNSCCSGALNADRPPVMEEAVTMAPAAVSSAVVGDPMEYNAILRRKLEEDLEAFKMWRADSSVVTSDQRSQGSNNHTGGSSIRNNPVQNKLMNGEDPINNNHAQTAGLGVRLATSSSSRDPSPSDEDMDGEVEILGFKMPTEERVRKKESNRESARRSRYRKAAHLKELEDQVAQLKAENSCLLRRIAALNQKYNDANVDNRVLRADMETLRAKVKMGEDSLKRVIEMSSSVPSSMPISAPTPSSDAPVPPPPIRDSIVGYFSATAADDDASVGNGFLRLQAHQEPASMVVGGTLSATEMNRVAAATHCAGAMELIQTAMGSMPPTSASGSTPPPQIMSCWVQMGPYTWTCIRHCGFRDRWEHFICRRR

T2: RISBZ1 (Oryza sativa, UniProt Q6ZLB0 SEQ:1-436)
T2 sequence: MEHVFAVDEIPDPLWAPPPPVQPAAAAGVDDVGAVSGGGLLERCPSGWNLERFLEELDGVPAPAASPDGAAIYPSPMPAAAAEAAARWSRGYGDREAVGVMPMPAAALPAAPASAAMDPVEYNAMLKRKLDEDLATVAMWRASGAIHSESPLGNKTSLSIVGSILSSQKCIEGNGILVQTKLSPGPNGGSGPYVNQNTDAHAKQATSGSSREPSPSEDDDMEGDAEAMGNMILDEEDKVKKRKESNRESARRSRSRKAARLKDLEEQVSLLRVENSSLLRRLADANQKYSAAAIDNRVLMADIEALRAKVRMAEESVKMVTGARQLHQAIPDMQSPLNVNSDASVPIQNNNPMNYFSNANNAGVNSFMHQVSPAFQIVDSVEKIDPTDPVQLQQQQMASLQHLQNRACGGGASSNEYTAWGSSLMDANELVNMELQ


What was measured:
[1] = molecular target: the molecule itself; test: gel shift assay of the Examples
[2] = molecular target: T1, Opaque2; test: cell_activity; 1x21-bp reporter; 5x21-bp 114.7-fold
Excerpt: (§1) In addition, reporter plasmids, into which the GUS gene, and one or three repeat(s) of the 12-bp GCN4 motif or one or five repeat(s) of the 21-bp GCN4 motif were inserted, were constructed. For negative control experiments, a reporter plasmid comprising four repeats of a mutant 12-bp GCN4 motif and the GUS reporter gene was used. The mutant 12-bp GCN4 motif has a mutation in the target sequence that is recognized by the RISBZ1 and O2. These plasmid constructs were introduced alone or in combination with other reporter or effector plasmid into rice protoplast cells prepared from its callus culture, and the GUS activity was assayed. When the reporter plasmid or effector plasmid was introduced alone into the protoplast, the GUS activity was detected at a low level. […] Even in the presence of these effector plasmids, the transcriptional activity of the GUS gene downstream of the mutant 12-bp GCN4 motif was the same level as that of background. […] The transcriptional activity of the reporter gene induced by the RISBZ1 gene product was slightly higher than that induced by the O2 gene product. […] 1 to 12 copies of 21-bp GCN motif were assayed, and the transcriptional activity was enhanced proportionately up to 9 copies. […]

[3] = molecular target: T2, RISBZ1; test: cell_activity; 1x21-bp reporter; 5x21-bp 127.1-fold
Excerpt: as §1

Binder	binding result [1]	activity [2] [fold]	activity [3] [fold]
full-length RISBZ1 protein (other, Untagged full-length protein translated in vitro from pET8c (TNT coupled wheat germ extract); the crude extract was used in the gel shift assay; also called rice seed b-Zipper 1) MEHVFAVDEIPDPLWAPPPPVQPAAAAGVDDVGAVSGGGLLERCPSGWNLERFLEELDGVPAPAASPDGAAIYPSPMPAAAAEAAARWSRGYGDREAVGVMPMPAAALPAAPASAAMDPVEYNAMLKRKLDEDLATVAMWRASGAIHSESPLGNKTSLSIVGSILSSQKCIEGNGILVQTKLSPGPNGGSGPYVNQNTDAHAKQATSGSSREPSPSEDDDMEGDAEAMGNMILDEEDKVKKRKESNRESARRSRSRKAARLKDLEEQVSLLRVENSSLLRRLADANQKYSAAAIDNRVLMADIEALRAKVRMAEESVKMVTGARQLHQAIPDMQSPLNVNSDASVPIQNNNPMNYFSNANNAGVNSFMHQVSPAFQIVDSVEKIDPTDPVQLQQQQMASLQHLQNRACGGGASSNEYTAWGSSLMDANELVNMELQ	binds	–	–
21-bp GCN4 reporter (dsDNA) DNA 1: GTTTGTCATGGCTGAGTCATG DNA 2: CATGACTCAGCCATGACAAAC	–	37.9	43.9
